± gives the uncertainty stated by the source.
Experiment: protein stability index of a GFP-peptide fusion (yeast GPS) (PSI 1-4); higher = more stable; sorted into four equal gates, so the index is relative within each strain
In short: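 Tiled yeast protein peptides of 17 residues were each joined downstream of GFP, on plasmids that also express Cherry. The pooled library was maintained in yeast, and mid-log cultures in leucine-free medium were sorted into four equal gates on the GFP/Cherry ratio. Plasmids from every gate were amplified by PCR and sequenced on Illumina, with barcodes linking reads to strains. The protein stability index of a peptide is its gate-number-weighted read frequency summed over the gates.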

Sequence | protein stability index (doa10∆) | protein stability index (pdr5∆) | protein stability index (san1∆) | protein stability index (ubr1∆)
DDLKQKKEELVEIAYHK [RPO31] | 3.18 ± 0.16 | 3.13 ± 0.072 | 3.08 ± 0.14 | 3.08 ± 0.082
INFERIDEVFSWYLNTF [GRR1] | 2.22 ± 0.058 | 1.91 ± 0.044 | 2.51 ± 0.1 | 1.82 ± 0.051
DRFKPNLDIAKDLIRTD [MED4] | 3.38 ± 0.19 | 3.34 ± 0.19 | 2.82 ± 0.11 | 2.96 ± 0.14
LALERMVPKRSTIITKA [YCS4] | 1.28 ± 0.1 | 1.47 ± 0.066 | 1.16 ± 0.11 | 1.08 ± 0.091
INSGLYSVLLESPLSVA [YML103C/NUP188] | 1.47 ± 0.058 | 1.18 ± 0.066 | 1.15 ± 0.18 | 1.14 ± 0.053
EENNYQYGYSGSSAGMN [SNF6] | 2.22 ± 0.053 | 2.16 ± 0.077 | 1.94 ± 0.12 | 2.5 ± 0.065
VLIAQERSAGNIVQVFK [RPB2] | 2.85 ± 0.13 | 3.39 ± 0.23 | 2.97 ± 0.087 | 3.11 ± 0.064
SNLAATKSMVKIAEQYS [RPN11] | 2.83 ± 0.075 | 2.73 ± 0.064 | 3.04 ± 0.051 | 2.98 ± 0.063
LHCCIQLLMGDIPELSF [RPN3] | 1.71 ± 0.048 | 1.73 ± 0.052 | 1.78 ± 0.065 | 1.71 ± 0.042
GIREKRAREKAEAEAEK [RPL13A] |  | 3.5 ± 0.25 |  | 
QRVCLRSDSYMLHKVLE [RPT6] | 2.84 ± 0.084 | 2.95 ± 0.073 | 2.81 ± 0.067 | 2.84 ± 0.047
DLEWQELTSFSSQPLEP [DSN1] | 3.05 ± 0.054 | 3.05 ± 0.053 | 2.98 ± 0.054 | 2.98 ± 0.036
AKEVYKIHQQLLFKARL [GAL11] |  | 3.18 ± 0.18 |  | 2.84 ± 0.25
STVAKNVSFVLPDEKSD [YCG1] | 3.2 ± 0.058 | 3.16 ± 0.037 | 3.09 ± 0.041 | 3.01 ± 0.038
PKNSKTPQSKGFVRNSF [RPO31] | 3.17 ± 0.15 | 3.03 ± 0.14 | 2.92 ± 0.12 | 3.18 ± 0.068
KATLELLKLIEPYVAYG [RPL7A] | 2.28 ± 0.078 | 3.24 ± 0.083 | 3.3 ± 0.034 | 2.79 ± 0.047
AHRNGIKKPKTYKYPSL [RPL29] | 3.42 ± 0.11 | 2.96 ± 0.15 | 3.19 ± 0.28 | 2.95 ± 0.1
ITPSAMKLVPSIPPATI [RPB5] | 2.32 ± 0.054 | 2.56 ± 0.069 | 2.35 ± 0.057 | 2.5 ± 0.054
IDTSKNLENMSIQDTST [YCG1] | 2.79 ± 0.046 | 2.94 ± 0.041 | 2.71 ± 0.044 | 2.68 ± 0.041
SIVTVVSSAKFSGKYLK [RPL22B] | 2.8 ± 0.1 | 2.86 ± 0.11 | 2.73 ± 0.085 | 2.73 ± 0.093
ALERNWPIVNSKVYFNN [RPN12] | 1.93 ± 0.08 | 1.7 ± 0.072 | 1.38 ± 0.12 | 1.9 ± 0.087
QLSLDASKTNLRLTDVT [GAL11] | 2.85 ± 0.058 | 3.23 ± 0.066 | 3.06 ± 0.047 | 3.16 ± 0.047
NVLLLDSNGDFNEDQLF [RRP46] | 3.17 ± 0.064 | 3.04 ± 0.054 | 3.32 ± 0.055 | 3.17 ± 0.044
PNEFEIQLSTVNRQSPL [RGR1] | 2.19 ± 0.063 | 2.65 ± 0.057 | 2.69 ± 0.054 | 2.45 ± 0.055
RFKSQFLYVLIPAGIYW [QCR8] | 1.75 ± 0.14 | 2.15 ± 0.069 | 2.07 ± 0.12 | 2.37 ± 0.092
AALDLSHTQNIGHLIKT [SMC2] | 2.88 ± 0.083 | 2.47 ± 0.063 | 2.27 ± 0.087 | 2.72 ± 0.046

Sequence | protein stability index (doa10∆) | protein stability index (pdr5∆) | protein stability index (san1∆) | protein stability index (ubr1∆)
WIAMRREKRDRTHFKRM [PRP8] | 1.99 ± 0.079 | 2.54 ± 0.078 | 2.04 ± 0.2 | 1.93 ± 0.065
LLVQSLNDMVLELKENY [NNF1] | 2.75 ± 0.14 | 1.52 ± 0.1 |  | 
LKRNSWPKTRGVAMNPV [RPL2A] | 2.95 ± 0.18 | 3.32 ± 0.2 | 3.2 ± 0.16 | 2.83 ± 0.085
IPSLANNGNNSTSIQYH [POP6] | 2.45 ± 0.054 | 2.95 ± 0.06 | 2.47 ± 0.066 | 2.59 ± 0.046
DDDINWQELARSTDEFN [RPT5] | 3.18 ± 0.064 | 3.21 ± 0.065 | 3.11 ± 0.048 | 3.2 ± 0.043
KESPWKILMYQYNIPPE [RRP6] | 2.23 ± 0.07 | 2.01 ± 0.066 | 1.42 ± 0.11 | 1.57 ± 0.055
KILEQFEYVLYPSKTLK [FAS2] | 3.01 ± 0.078 | 2.93 ± 0.069 | 2.97 ± 0.077 | 3.15 ± 0.064
NTIIRDGSKMLKRADYT [RPN14] | 2.87 ± 0.096 | 2.36 ± 0.093 | 3.65 ± 0.039 | 2.2 ± 0.055
LNDLVESSFIEIDDTEA [BRR2] | 2.9 ± 0.037 | 2 ± 0.043 | 2.13 ± 0.069 | 2.25 ± 0.029
SGQKAGLIAARRTGLLR [RPL2A] | 3.07 ± 0.19 | 3.43 ± 0.11 | 3.15 ± 0.067 | 2.72 ± 0.16
SKQVQVSQQPLSRGYTC [ECM29] | 2.83 ± 0.074 | 2.76 ± 0.091 | 2.44 ± 0.061 | 2.92 ± 0.052
LDAKNKVFVPPKSKSLP [RPO31] | 2.71 ± 0.075 | 3.03 ± 0.062 | 3.37 ± 0.085 | 2.72 ± 0.055
TPLRDEVTDKNYYYLFD [PRP8] | 2.98 ± 0.068 | 2.55 ± 0.049 | 3.03 ± 0.048 | 3.11 ± 0.059
NKELPINHTILGKLQDV [RPN8] | 2.62 ± 0.051 | 2.69 ± 0.068 | 2.5 ± 0.064 | 2.67 ± 0.049
WGVNLPAHTVIIKGTDV [BRR2] | 2.82 ± 0.086 | 2.79 ± 0.13 | 2.32 ± 0.083 | 2.58 ± 0.058
TNPKLKSEFDDLSLNIH [YMR129W/POM152] | 2.96 ± 0.071 | 3.14 ± 0.056 | 3.02 ± 0.038 | 3.17 ± 0.05
NGTMINEVIDKLKNENT [PCI8] | 2.84 ± 0.056 | 2.91 ± 0.052 | 2.84 ± 0.047 | 3.09 ± 0.037
SQASSDLGETFRGIIRS [CSL4] | 3.17 ± 0.14 | 2.96 ± 0.081 | 3.3 ± 0.096 | 3.24 ± 0.073
KEHEPCIIFMDEVDAIG [RPT4] | 1.85 ± 0.049 | 1.92 ± 0.059 | 1.79 ± 0.12 | 1.98 ± 0.072
RASIEYYVGQVMRNNES [DIS3] | 3.22 ± 0.067 | 3.21 ± 0.091 | 3.21 ± 0.053 | 3.26 ± 0.063
DHDDSTDDADDHINWEH [NSL1] | 3.31 ± 0.088 | 3.31 ± 0.094 | 3.26 ± 0.056 | 3.35 ± 0.04
DPQQVFDERIKFANQLH [RPN3] | 1.68 ± 0.09 | 1.97 ± 0.12 | 1.41 ± 0.14 | 1.33 ± 0.075
LSAPLSKELRAQYGIKA [RPL26A] | 2.91 ± 0.14 | 2.31 ± 0.12 | 3.48 ± 0.12 | 1.87 ± 0.15
RIGTIVHKERHDGGFDL [RPS4A] |  | 2.54 ± 0.16 | 1.65 ± 0.17 | 1.99 ± 0.23
MLVDLNVPWPQNSYADK [RPP1] | 1.59 ± 0.27 | 1.08 ± 0.14 |  | 1.12 ± 0.15
VSANTPKSLNSNININV [SWI1] | 3.14 ± 0.11 | 2.64 ± 0.12 | 2.84 ± 0.12 | 2.87 ± 0.093

Sequence | protein stability index (doa10∆) | protein stability index (pdr5∆) | protein stability index (san1∆) | protein stability index (ubr1∆)
NRSAKNSKNDSANVELF [YCS4] | 3.09 ± 0.093 | 3.29 ± 0.11 | 2.94 ± 0.12 | 3.39 ± 0.072
KLKDSKKLFQKKENLTR [YML103C/NUP188] | 2.57 ± 0.12 | 3.3 ± 0.1 | 2.97 ± 0.11 | 3.25 ± 0.1
AETLAEELINAAKGSST [RPS5] | 2.15 ± 0.083 | 2.51 ± 0.095 | 2.32 ± 0.1 | 2.09 ± 0.088
AVSKDPLLTKRKDLRDK [DIS3] | 2.97 ± 0.14 | 3.41 ± 0.13 | 2.78 ± 0.22 | 3.25 ± 0.14
PTTVSYIFCISRTIGMV [SCL1] | 1.99 ± 0.039 | 1.97 ± 0.051 | 2.88 ± 0.036 | 1.95 ± 0.039
GLAVGLALINYGRQELA [RPN2] | 1.3 ± 0.11 | 1.21 ± 0.076 | 1.58 ± 0.24 | 1.09 ± 0.053
FPMPYENEEFITFLQTL [ECM29] | 2.34 ± 0.058 | 2.53 ± 0.034 | 2.4 ± 0.047 | 2.39 ± 0.063
PKDPSNVETYEQILQWV [BRR2] | 2.77 ± 0.079 | 2.48 ± 0.098 | 2.91 ± 0.11 | 2.88 ± 0.12
ERESSGAKDAEKSGISK [RPC17] | 2.91 ± 0.18 | 3.4 ± 0.3 |  | 3.64 ± 0.16
GKEHIVAALVSLTEKFS [ECM29] | 1.73 ± 0.047 | 1.95 ± 0.055 | 1.58 ± 0.084 | 1.63 ± 0.042
LKNPEIFQRVGIKPPKG [RPT4] | 2.13 ± 0.12 | 2.18 ± 0.22 | 2.45 ± 0.12 | 2.31 ± 0.18
QFKTTIKDTANDNDITV [UBP6] | 2.45 ± 0.11 | 2.09 ± 0.074 | 2.19 ± 0.084 | 1.67 ± 0.041
EVDVCDKCGLMGYSGWC [RET1] | 2.15 ± 0.098 | 2.73 ± 0.086 | 2.32 ± 0.19 | 2.39 ± 0.088
EQISNNSNQQQNPKLFQ [SIN4] | 2.96 ± 0.062 | 2.67 ± 0.045 | 3.13 ± 0.062 | 2.95 ± 0.052
VTKWTNQLTESASHFEQ [YJL041W/NSP1] | 2.85 ± 0.13 | 3.19 ± 0.099 | 3.16 ± 0.091 | 2.83 ± 0.098
RTLNIQPEVAVKAAINF [YIL149C/MLP2] | 2.19 ± 0.054 | 2.15 ± 0.045 | 1.84 ± 0.071 | 2.21 ± 0.046
IRFRIEREVFVDVKPKS [RPC25] | 2.13 ± 0.12 | 2.66 ± 0.16 | 2.16 ± 0.13 | 2.12 ± 0.25
KLVLAARIIAAIPNPED [RPS0A] | 1.71 ± 0.074 | 2.11 ± 0.11 | 2.31 ± 0.099 | 2.5 ± 0.14
NSQVFGVARIYASFNDT [RPS14B] | 2.54 ± 0.08 | 2.45 ± 0.065 | 2.5 ± 0.048 | 2.67 ± 0.079
TEALLLEHDVEYRPFSK [DIS3] | 3.18 ± 0.095 | 3.08 ± 0.085 | 3.17 ± 0.08 | 3.3 ± 0.082
VLMETKNTQSPQTPLVE [SNU114] | 2.95 ± 0.16 | 2.93 ± 0.12 | 2.67 ± 0.087 | 2.96 ± 0.11
YPNSSKLKRNSDRREHD [LIN1] | 3.25 ± 0.083 | 3.1 ± 0.067 | 3.02 ± 0.045 | 3.03 ± 0.075
TDRESYPRLQDPSRELN [YCS4] | 3.14 ± 0.05 | 3.19 ± 0.043 | 3.23 ± 0.034 | 3.09 ± 0.052
GFGRKGKAKGDIPGVRF [RPS23A] | 3.19 ± 0.14 | 3.23 ± 0.13 | 3.42 ± 0.052 | 3.22 ± 0.094
APIGKHYVVLDTNVVLQ [DIS3] | 2.93 ± 0.13 | 2.81 ± 0.14 | 2.04 ± 0.16 | 2.31 ± 0.12
